{"source": "patent US20220411487A1", "about": "(Regeneron, published 2022)", "assay_in_all_cases": "flow cytometry, HEK293 cells expressing target", "key": {"[1]": {"target": "T1, full length human TMPRSS6 on HEK293 cells (HEK293/hTMPRSS6) (human, UniProt Q8IU80 10-811)", "T1 construct": "whole, on cells", "T1 sequence (looked up)": "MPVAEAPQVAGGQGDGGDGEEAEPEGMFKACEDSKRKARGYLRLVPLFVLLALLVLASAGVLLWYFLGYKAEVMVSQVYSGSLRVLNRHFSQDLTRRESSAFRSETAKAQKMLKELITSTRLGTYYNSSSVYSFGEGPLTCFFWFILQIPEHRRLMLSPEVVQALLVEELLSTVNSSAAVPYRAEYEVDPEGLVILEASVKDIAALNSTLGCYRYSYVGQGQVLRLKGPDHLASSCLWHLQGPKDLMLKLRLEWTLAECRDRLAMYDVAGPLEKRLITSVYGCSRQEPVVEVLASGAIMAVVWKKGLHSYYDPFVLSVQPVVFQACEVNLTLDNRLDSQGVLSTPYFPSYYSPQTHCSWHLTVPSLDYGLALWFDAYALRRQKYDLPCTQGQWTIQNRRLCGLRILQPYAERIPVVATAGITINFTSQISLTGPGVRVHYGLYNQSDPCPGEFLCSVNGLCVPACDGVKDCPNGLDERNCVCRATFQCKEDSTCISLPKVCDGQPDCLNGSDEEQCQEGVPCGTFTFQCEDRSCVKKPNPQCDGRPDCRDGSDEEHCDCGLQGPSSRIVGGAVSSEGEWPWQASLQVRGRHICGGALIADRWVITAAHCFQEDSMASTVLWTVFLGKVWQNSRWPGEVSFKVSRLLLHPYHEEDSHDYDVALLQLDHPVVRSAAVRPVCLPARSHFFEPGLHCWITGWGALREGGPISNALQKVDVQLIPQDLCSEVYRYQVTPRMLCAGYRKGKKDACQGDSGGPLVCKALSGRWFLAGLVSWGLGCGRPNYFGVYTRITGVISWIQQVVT", "protocol": "(§1) To assess the binding of anti-TMPRSS6 antibodies of the present disclosure to the receptor expressed on the cell surface, antibodies (including an IgG subclass control) were serially diluted in assay buffer (PBS without Ca⁺⁺ and Mg⁺⁺ containing 2% FBS) from 375 nM to 22.9 pM (plus a sample containing assay buffer alone without test molecule) and incubated with 0.5×10⁶ cells/well at 4° C. for 30 minutes in assay buffer. […] Cells were fixed using BD CytoFix™ (Becton Dickinson, #554655) and analyzed on either the IQue® or IQue®Plus Flow Cytometers (Intellicyt®). Unstained and secondary antibody alone controls were also tested for all cell lines. The results were analyzed using ForeCyt® (IntelliCyt®) software to determine the geometric means of fluorescence for viable cells and binding ratio was calculated by normalizing the geometric mean value of the test condition by the geometric mean value of the corresponding unstained cells."}, "[2]": {"target": "T2, full length cynomolgous monkey TMPRSS6 on HEK293 cells (HEK293/mfTMPRSS6) (cynomolgous monkey/Macaca fascicularis, UniProt Q8IU80 10-811 (human entry))", "T2 chain": "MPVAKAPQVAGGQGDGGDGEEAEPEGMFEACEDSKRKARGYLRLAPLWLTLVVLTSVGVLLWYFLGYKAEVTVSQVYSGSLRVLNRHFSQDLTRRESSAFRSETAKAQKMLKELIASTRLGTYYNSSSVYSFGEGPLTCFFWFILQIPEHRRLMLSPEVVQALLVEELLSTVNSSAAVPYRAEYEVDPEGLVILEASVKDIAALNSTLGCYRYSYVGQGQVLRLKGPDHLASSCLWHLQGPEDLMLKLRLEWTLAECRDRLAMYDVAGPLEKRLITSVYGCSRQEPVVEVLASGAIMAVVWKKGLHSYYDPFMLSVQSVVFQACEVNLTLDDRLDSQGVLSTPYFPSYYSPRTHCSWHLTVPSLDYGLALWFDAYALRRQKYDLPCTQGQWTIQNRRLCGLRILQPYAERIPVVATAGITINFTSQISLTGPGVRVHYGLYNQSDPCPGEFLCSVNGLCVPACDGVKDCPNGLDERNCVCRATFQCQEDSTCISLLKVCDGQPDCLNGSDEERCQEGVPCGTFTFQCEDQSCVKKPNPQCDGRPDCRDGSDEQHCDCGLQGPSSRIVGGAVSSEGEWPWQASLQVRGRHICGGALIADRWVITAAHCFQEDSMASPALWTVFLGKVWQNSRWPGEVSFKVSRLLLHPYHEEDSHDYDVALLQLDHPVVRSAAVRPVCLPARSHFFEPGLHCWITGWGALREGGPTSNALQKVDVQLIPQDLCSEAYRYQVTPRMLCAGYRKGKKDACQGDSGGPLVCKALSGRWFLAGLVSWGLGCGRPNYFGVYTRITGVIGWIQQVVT", "protocol": "as §1"}, "[3]": {"target": "T3, full length mouse TMPRSS6 on HEK293 cells (HEK293/mTMPRSS6) (mouse, UniProt Q9DBI0 1-811)", "T3 construct": "line sorted for high expression", "T3 sequence": "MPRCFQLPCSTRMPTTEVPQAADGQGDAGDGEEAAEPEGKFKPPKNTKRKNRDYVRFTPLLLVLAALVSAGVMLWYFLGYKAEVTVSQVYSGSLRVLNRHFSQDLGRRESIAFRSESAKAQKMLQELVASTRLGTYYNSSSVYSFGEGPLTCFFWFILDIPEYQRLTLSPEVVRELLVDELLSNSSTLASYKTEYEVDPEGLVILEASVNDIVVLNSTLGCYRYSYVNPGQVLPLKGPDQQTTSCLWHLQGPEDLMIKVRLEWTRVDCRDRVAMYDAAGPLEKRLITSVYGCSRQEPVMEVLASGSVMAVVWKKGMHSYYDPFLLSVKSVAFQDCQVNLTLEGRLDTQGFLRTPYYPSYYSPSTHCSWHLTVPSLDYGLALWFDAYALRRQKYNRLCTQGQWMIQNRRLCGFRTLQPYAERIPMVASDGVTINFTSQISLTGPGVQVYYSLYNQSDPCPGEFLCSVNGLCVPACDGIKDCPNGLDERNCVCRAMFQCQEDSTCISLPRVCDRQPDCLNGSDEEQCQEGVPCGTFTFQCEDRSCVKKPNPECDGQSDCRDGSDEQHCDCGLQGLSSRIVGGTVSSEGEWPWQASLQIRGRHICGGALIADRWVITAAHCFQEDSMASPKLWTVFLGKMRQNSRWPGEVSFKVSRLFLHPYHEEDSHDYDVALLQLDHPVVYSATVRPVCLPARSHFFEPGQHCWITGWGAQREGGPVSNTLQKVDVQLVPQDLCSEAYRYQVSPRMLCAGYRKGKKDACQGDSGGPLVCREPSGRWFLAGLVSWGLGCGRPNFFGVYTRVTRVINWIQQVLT", "protocol": "as §1"}}, "data": [{"binder": "REGN7999 (antibody, human IgG4 S228P, kappa, V domains shown, fully human; human IgG4 Fc with hinge S108P; also called mAb41450) VH: EVQLVESGGGLVQPGGSLRLSCAASGFTFSSYAMTWVRQAPGKGLEWVSAISGSDTSTYYADSVKGRFTISRDNSKNTLFLQMNSLRAEDTAVYYCAKHQDYDFSYYYSAMDVWGQGTTVTVSS VL: DIQMTQSPSSLSASVGDRVIITCRASQDFNSWLAWYQQKPGKAPKLLIYAASSLQSGVPSRFSGSGSGTDFTLTISSLQPEDFATYYCQQTDSFPFTFGPGTKVDIKR", "values": [{"measurement": "EC50", "setting": "[1]", "value": 2.2, "unit": "nM"}, {"measurement": "Max. Fold Binding", "setting": "[1]", "value": "50 fold over unstained control"}, {"measurement": "EC50", "setting": "[2]", "value": 2, "unit": "nM"}, {"measurement": "Max. Fold Binding", "setting": "[2]", "value": "79 fold over unstained control"}, {"measurement": "EC50", "setting": "[3]", "value": 4.5, "unit": "nM"}, {"measurement": "Max. Fold Binding", "setting": "[3]", "value": "421 fold over unstained control"}]}, {"binder": "REGN7969 (antibody, human IgG4 S228P, kappa, V domains shown, fully human; human IgG4 Fc with hinge S108P; also called mAb37746) VH: QVQLVESGGGVVQPGRSLRLSCAASGFTFNNYGMHWVRQAPGKGLEWVAIISYDGSNEYYSDSVKGRFTISRDNSKNTLYLQMNSLRAEDTAVYYCARDQDYGGNLFHYWGQGTLVTVSS VL: not shown", "values": [{"measurement": "EC50", "setting": "[1]", "value": 0.67, "unit": "nM"}, {"measurement": "Max. Fold Binding", "setting": "[1]", "value": "52 fold over unstained control"}, {"measurement": "EC50", "setting": "[2]", "value": 1.2, "unit": "nM"}, {"measurement": "Max. Fold Binding", "setting": "[2]", "value": "50 fold over unstained control"}, {"measurement": "Max. Fold Binding", "setting": "[3]", "value": "1 fold over unstained control"}]}, {"binder": "REGN7971 (antibody, human IgG4 S228P, kappa, V domains shown, fully human; human IgG4 Fc with hinge S108P; also called mAb37763) VH: QVQLVESGGGVVQPGRSLRLSCAASGFTFSTYGMHWVRQAPGKGLEWVAIISYDGSNDYYLDSVKGRFTISRDNSKNTLYLQMNNLRAEDTAVYYCAKDQGYGGNLFASWGQGTLVTVSS VL: not shown", "values": [{"measurement": "EC50", "setting": "[1]", "value": 0.97, "unit": "nM"}, {"measurement": "Max. Fold Binding", "setting": "[1]", "value": "66 fold over unstained control"}, {"measurement": "EC50", "setting": "[2]", "value": 1.5, "unit": "nM"}, {"measurement": "Max. Fold Binding", "setting": "[2]", "value": "75 fold over unstained control"}, {"measurement": "Max. Fold Binding", "setting": "[3]", "value": "1 fold over unstained control"}]}, {"binder": "REGN7974 (antibody, human IgG4 S228P, kappa, V domains shown, fully human; human IgG4 Fc with hinge S108P; also called mAb41422) VH: EVQLVESGGGLVQPGRSLRLSCIASGFNFGDYGMSWVRQAPGKGLEWVGFIRSKAYGGTTEYAASVKGRFTISRDDSKSIAYLQMNSLKTEDAAMYYCSRDYYDILTGYYGDYWGQGTLVTVSS VL: not shown", "values": [{"measurement": "EC50", "setting": "[1]", "value": 2.4, "unit": "nM"}, {"measurement": "Max. Fold Binding", "setting": "[1]", "value": "54 fold over unstained control"}, {"measurement": "EC50", "setting": "[2]", "value": 3.6, "unit": "nM"}, {"measurement": "Max. Fold Binding", "setting": "[2]", "value": "50 fold over unstained control"}, {"measurement": "Max. Fold Binding", "setting": "[3]", "value": "1 fold over unstained control"}]}, {"binder": "REGN7977 (antibody, V domains shown, fully human; human IgG4 Fc with hinge S108P; also called mAb41465) VH: EVQLVESGGGLVKPGGSLRVSCAASGVTFSNVWMSWVRQVPGKGLEWVGRIKSKTDGGTTDYAAPVKGRFTISKDDSKNTLFLQMNSLKTEDTAVYYCTTETGDFWSGYYPRFQHWGQGTLVTVSS VL: DIQMTQSPSSLSASVGDRVTITCRASQYISTYLNWYQQKPGKAPSLLIYAASSLQSGVPSRFSGSGSGTDFTLTISSLQPEDFASYSCQQSYSTPPYTFGQGTKLEIKR", "values": [{"measurement": "EC50", "setting": "[1]", "value": 1.9, "unit": "nM"}, {"measurement": "Max. Fold Binding", "setting": "[1]", "value": "69 fold over unstained control"}, {"measurement": "EC50", "setting": "[2]", "value": 2.4, "unit": "nM"}, {"measurement": "Max. Fold Binding", "setting": "[2]", "value": "78 fold over unstained control"}, {"measurement": "EC50", "setting": "[3]", "value": 9.1, "unit": "nM"}, {"measurement": "Max. Fold Binding", "setting": "[3]", "value": "125 fold over unstained control"}]}, {"binder": "REGN8023 (antibody, human IgG4 S228P, kappa, V domains shown, fully human; human IgG4 Fc with hinge S108P; also called mAb37699) VH: EVQLVESGGGLVKPGGSLRISCAASGFIFVDYAMHWVRQAPGKGLEWVSGISWNSGSIGYADSVKGRFTISRDNAKKSLYLQMSGLRPEDTALYYCVKSGFYYVRSYFDNWGQGTLVTVSS VL: DIVMTQSPLSLPVTPGEPASISCRSSQSLLDSDDGNTYLDWYLRKPGQSPQLLIYTLSYRASGVPDRFSGSGSGTDFTLKISRVEADDVGVYYCMQRIEFPLTFGGGTKVEIKR", "values": [{"measurement": "EC50", "setting": "[1]", "value": 0.7, "unit": "nM"}, {"measurement": "Max. Fold Binding", "setting": "[1]", "value": "47 fold over unstained control"}, {"measurement": "EC50", "setting": "[2]", "value": 0.94, "unit": "nM"}, {"measurement": "Max. Fold Binding", "setting": "[2]", "value": "52 fold over unstained control"}, {"measurement": "EC50", "setting": "[3]", "value": 0.84, "unit": "nM"}, {"measurement": "Max. Fold Binding", "setting": "[3]", "value": "296 fold over unstained control"}]}]}
